# Assay results published in PMC314469, “Protein Interaction Networks by Proteome Peptide Scanning” (PLoS Biology, 2004).
# T1: Myo5 SH3 (MYO5_YEAST), Q04439
# T1 chain: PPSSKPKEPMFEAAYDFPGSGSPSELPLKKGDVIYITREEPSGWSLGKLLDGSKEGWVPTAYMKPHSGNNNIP
# T2: Rvs167 SH3 (RV167_YEAST), P39743
# T2 chain: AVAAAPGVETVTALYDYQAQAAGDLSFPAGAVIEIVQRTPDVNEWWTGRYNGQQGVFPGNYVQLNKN
# T3: Yfr024 SH3 (LSB3_YEAST), P43603
# T3 chain: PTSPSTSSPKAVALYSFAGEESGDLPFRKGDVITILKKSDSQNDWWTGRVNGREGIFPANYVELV
# T4: Boi2 SH3 (BOI2_YEAST), P39969
# T4 chain: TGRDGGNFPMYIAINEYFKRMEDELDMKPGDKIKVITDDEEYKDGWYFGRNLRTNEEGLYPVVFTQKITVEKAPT
# T5: Boi1 SH3 (BOI1_YEAST), P38041
# T5 chain: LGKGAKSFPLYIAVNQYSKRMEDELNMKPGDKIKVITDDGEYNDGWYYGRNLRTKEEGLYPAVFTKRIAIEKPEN
# T6: Yhr016c SH3 (YSC84_YEAST), P32793
# T6 chain: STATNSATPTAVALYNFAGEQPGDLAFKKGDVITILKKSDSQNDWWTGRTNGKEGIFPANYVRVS
# Molecular target: T1, Myo5 SH3 (MYO5_YEAST), Q04439
# Assay: SPOT array
row,"normalised SPOT signal, Boehringer light units (BLU); mean over the file's lines of this peptide",Binder
1,253,PESAKSNPNSPRLK [YOR231W 8-21]
2,649,PFIRRYTPLKPITK [YKR093W 410-423]
3,125,PELAKNSPLAPIKK [YLL021W 1081-1094]
4,60300,PIRLRKRPPPPPPV [YIL156W 508-521]
5,236,PHFAKHSPDSPRTS [YER167W 325-338]
6,192,PDLNKRPPREPIEF [YDR195W 471-484]
7,580,PSKKKSKPKVPAKN [YNL106C 1153-1166]
8,116,PKSEKIEPLSPSFK [YJL172W 61-74]
9,974,PFLIKFTPKFPQSI [YMR156C 9-22]
10,187,PIGSRYNPNLPVTE [YPR019W 677-690]
11,183,PEWRRPHPNIPDAK [YJR035W 269-282]
12,318,NYHHRETPPPPPSN [YPL055C 201-214]
13,154,PIVKKNVPKPPPLV [YBR123C 400-413]
14,164,PANPKILPKIPSGA [YPL137C 1165-1178]
15,90,PGGPKFEPLYPREE [YHR165C 347-360]
16,361,PKHIRNEPVKPFRN [YHR037W 25-38]

# Molecular target: T2, Rvs167 SH3 (RV167_YEAST), P39743
# Assay: SPOT array
row,"normalised SPOT signal, Boehringer light units (BLU); mean over the file's lines of this peptide",Binder
1,80.9,PESAKSNPNSPRLK [YOR231W 8-21]
2,585,PFIRRYTPLKPITK [YKR093W 410-423]
3,31.5,PELAKNSPLAPIKK [YLL021W 1081-1094]
4,289,PIRLRKRPPPPPPV [YIL156W 508-521]
5,110,PHFAKHSPDSPRTS [YER167W 325-338]
6,27.8,PDLNKRPPREPIEF [YDR195W 471-484]
7,36.2,PSKKKSKPKVPAKN [YNL106C 1153-1166]
8,44.3,PKSEKIEPLSPSFK [YJL172W 61-74]
9,147,PFLIKFTPKFPQSI [YMR156C 9-22]
10,95.7,PIGSRYNPNLPVTE [YPR019W 677-690]
11,94.1,PEWRRPHPNIPDAK [YJR035W 269-282]
12,129,NYHHRETPPPPPSN [YPL055C 201-214]
13,33,PIVKKNVPKPPPLV [YBR123C 400-413]
14,34.3,PANPKILPKIPSGA [YPL137C 1165-1178]
15,176,PGGPKFEPLYPREE [YHR165C 347-360]
16,49.7,PKHIRNEPVKPFRN [YHR037W 25-38]

# Molecular target: T3, Yfr024 SH3 (LSB3_YEAST), P43603
# Assay: SPOT array
row,"normalised SPOT signal, Boehringer light units (BLU); mean over the file's lines of this peptide",Binder
1,89.7,PESAKSNPNSPRLK [YOR231W 8-21]
2,624,PFIRRYTPLKPITK [YKR093W 410-423]
3,69.3,PELAKNSPLAPIKK [YLL021W 1081-1094]
4,292,PIRLRKRPPPPPPV [YIL156W 508-521]
5,33.4,PHFAKHSPDSPRTS [YER167W 325-338]
6,268,PDLNKRPPREPIEF [YDR195W 471-484]
7,565,PSKKKSKPKVPAKN [YNL106C 1153-1166]
8,0,PKSEKIEPLSPSFK [YJL172W 61-74]
9,116,PFLIKFTPKFPQSI [YMR156C 9-22]
10,197,PIGSRYNPNLPVTE [YPR019W 677-690]
11,1150,PEWRRPHPNIPDAK [YJR035W 269-282]
12,323,NYHHRETPPPPPSN [YPL055C 201-214]
13,64.6,PIVKKNVPKPPPLV [YBR123C 400-413]
14,93.9,PANPKILPKIPSGA [YPL137C 1165-1178]
15,12.3,PGGPKFEPLYPREE [YHR165C 347-360]
16,928,PKHIRNEPVKPFRN [YHR037W 25-38]

# Molecular target: T4, Boi2 SH3 (BOI2_YEAST), P39969
# Assay: SPOT array
row,"normalised SPOT signal, Boehringer light units (BLU); mean over the file's lines of this peptide",Binder
1,0,PESAKSNPNSPRLK [YOR231W 8-21]
2,67.8,PFIRRYTPLKPITK [YKR093W 410-423]
3,0,PELAKNSPLAPIKK [YLL021W 1081-1094]
4,39.2,PIRLRKRPPPPPPV [YIL156W 508-521]
5,11,PHFAKHSPDSPRTS [YER167W 325-338]
6,10.6,PDLNKRPPREPIEF [YDR195W 471-484]
7,32.8,PSKKKSKPKVPAKN [YNL106C 1153-1166]
8,7.7,PKSEKIEPLSPSFK [YJL172W 61-74]
9,0,PFLIKFTPKFPQSI [YMR156C 9-22]
10,148,PIGSRYNPNLPVTE [YPR019W 677-690]
11,40.3,PEWRRPHPNIPDAK [YJR035W 269-282]
12,59.3,NYHHRETPPPPPSN [YPL055C 201-214]
13,167,PIVKKNVPKPPPLV [YBR123C 400-413]
14,0.9,PANPKILPKIPSGA [YPL137C 1165-1178]
15,16.6,PGGPKFEPLYPREE [YHR165C 347-360]
16,0,PKHIRNEPVKPFRN [YHR037W 25-38]

# Molecular target: T5, Boi1 SH3 (BOI1_YEAST), P38041
# Assay: SPOT array
row,"normalised SPOT signal, Boehringer light units (BLU); mean over the file's lines of this peptide",Binder
1,618,PESAKSNPNSPRLK [YOR231W 8-21]
2,529,PFIRRYTPLKPITK [YKR093W 410-423]
3,685,PELAKNSPLAPIKK [YLL021W 1081-1094]
4,6390,PIRLRKRPPPPPPV [YIL156W 508-521]
5,150,PHFAKHSPDSPRTS [YER167W 325-338]
6,114,PDLNKRPPREPIEF [YDR195W 471-484]
7,383,PSKKKSKPKVPAKN [YNL106C 1153-1166]
8,536,PKSEKIEPLSPSFK [YJL172W 61-74]
9,65,PFLIKFTPKFPQSI [YMR156C 9-22]
10,132,PIGSRYNPNLPVTE [YPR019W 677-690]
11,1280,PEWRRPHPNIPDAK [YJR035W 269-282]
12,58.5,NYHHRETPPPPPSN [YPL055C 201-214]
13,262,PIVKKNVPKPPPLV [YBR123C 400-413]
14,158,PANPKILPKIPSGA [YPL137C 1165-1178]
15,0,PGGPKFEPLYPREE [YHR165C 347-360]
16,1660,PKHIRNEPVKPFRN [YHR037W 25-38]

# Molecular target: Sho1 SH3 (SHO1_YEAST), P40073
# Assay: SPOT array
# Sequence of Sho1 SH3 (SHO1_YEAST), P40073 (P40073 295-366): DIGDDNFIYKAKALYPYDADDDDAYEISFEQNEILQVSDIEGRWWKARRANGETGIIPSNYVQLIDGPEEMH
row,"normalised SPOT signal, Boehringer light units (BLU); mean over the file's lines of this peptide",Binder
1,69.5,PESAKSNPNSPRLK [YOR231W 8-21]
2,59,PFIRRYTPLKPITK [YKR093W 410-423]
3,54.8,PELAKNSPLAPIKK [YLL021W 1081-1094]
4,98.1,PIRLRKRPPPPPPV [YIL156W 508-521]
5,25.1,PHFAKHSPDSPRTS [YER167W 325-338]
6,69.6,PDLNKRPPREPIEF [YDR195W 471-484]
7,483,PSKKKSKPKVPAKN [YNL106C 1153-1166]
8,84.8,PKSEKIEPLSPSFK [YJL172W 61-74]
9,97.2,PFLIKFTPKFPQSI [YMR156C 9-22]
10,36.1,PIGSRYNPNLPVTE [YPR019W 677-690]
11,9.9,PEWRRPHPNIPDAK [YJR035W 269-282]
12,70,NYHHRETPPPPPSN [YPL055C 201-214]
13,50.2,PIVKKNVPKPPPLV [YBR123C 400-413]
14,16400,PANPKILPKIPSGA [YPL137C 1165-1178]
15,40.6,PGGPKFEPLYPREE [YHR165C 347-360]
16,46.8,PKHIRNEPVKPFRN [YHR037W 25-38]

# Molecular target: T6, Yhr016c SH3 (YSC84_YEAST), P32793
# Assay: SPOT array
row,"normalised SPOT signal, Boehringer light units (BLU); mean over the file's lines of this peptide",Binder
1,31.8,PESAKSNPNSPRLK [YOR231W 8-21]
2,91.6,PFIRRYTPLKPITK [YKR093W 410-423]
3,14.6,PELAKNSPLAPIKK [YLL021W 1081-1094]
4,25.6,PIRLRKRPPPPPPV [YIL156W 508-521]
5,27.4,PHFAKHSPDSPRTS [YER167W 325-338]
6,4.6,PDLNKRPPREPIEF [YDR195W 471-484]
7,62,PSKKKSKPKVPAKN [YNL106C 1153-1166]
8,0.1,PKSEKIEPLSPSFK [YJL172W 61-74]
9,27.7,PFLIKFTPKFPQSI [YMR156C 9-22]
10,87.4,PIGSRYNPNLPVTE [YPR019W 677-690]
11,145,PEWRRPHPNIPDAK [YJR035W 269-282]
12,178,NYHHRETPPPPPSN [YPL055C 201-214]
13,27.1,PIVKKNVPKPPPLV [YBR123C 400-413]
14,5.1,PANPKILPKIPSGA [YPL137C 1165-1178]
15,16.9,PGGPKFEPLYPREE [YHR165C 347-360]
16,59.8,PKHIRNEPVKPFRN [YHR037W 25-38]
